Laboratory results from article PMC5773555, “Structural basis of SALM5-induced PTPδ dimerization for synaptic differentiation” (Nature Communications, 2018).

T1: human SALM5 LRR-Ig R110N/E160S (human, UniProt Q96NI6 18-374, R110N | E160S, N-linked glycans added at residues R110 and N158 (glycan wedge, shown by mass spectrometry))
T1 construct: SALM5, human, LRR and Ig domains, residues 18-374, with R110N and E160S; also called monomeric SALM5 R110N/E160S mutant; source: BacMam baculovirus-transduced HEK293 GnTI- cells, secreted, purified (Ni-NTA, gel filtration)
T1 sequence (looked up): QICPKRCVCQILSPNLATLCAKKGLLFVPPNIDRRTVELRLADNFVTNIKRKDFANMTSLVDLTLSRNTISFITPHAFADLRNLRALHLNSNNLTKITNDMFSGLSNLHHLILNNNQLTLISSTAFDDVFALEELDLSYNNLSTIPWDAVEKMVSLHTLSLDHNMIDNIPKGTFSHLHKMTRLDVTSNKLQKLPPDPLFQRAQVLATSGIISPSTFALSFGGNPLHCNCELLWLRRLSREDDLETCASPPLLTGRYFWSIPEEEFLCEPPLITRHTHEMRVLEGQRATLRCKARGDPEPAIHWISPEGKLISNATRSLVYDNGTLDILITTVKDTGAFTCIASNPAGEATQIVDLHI

T2: human SALM5 LRR-Ig L327N (human, UniProt Q96NI6 18-374, L327N, introduced N-linked glycan wedge GlcNAc2Man5 (confirmed by mass spectrometry))
T2 construct: SALM5, human, LRR and Ig domains, residues 18-374, with L327N; source: BacMam baculovirus-transduced HEK293 GnTI- cells, secreted, purified (Ni-NTA, gel filtration); not shown: His7, C-terminal, kept
T2 sequence (looked up): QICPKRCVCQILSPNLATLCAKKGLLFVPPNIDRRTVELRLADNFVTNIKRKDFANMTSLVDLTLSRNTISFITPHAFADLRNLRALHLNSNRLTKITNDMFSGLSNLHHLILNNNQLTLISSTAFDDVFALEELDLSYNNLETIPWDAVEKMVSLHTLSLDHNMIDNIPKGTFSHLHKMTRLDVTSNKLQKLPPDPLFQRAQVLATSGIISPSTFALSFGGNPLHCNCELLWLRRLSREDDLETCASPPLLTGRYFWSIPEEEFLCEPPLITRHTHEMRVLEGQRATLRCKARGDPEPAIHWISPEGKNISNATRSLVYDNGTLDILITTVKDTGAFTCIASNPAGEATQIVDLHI

B1: human SALM5 LRR-Ig (wild type) (domain or fragment, UniProt Q96NI6 18-374, looked up)
chain: QICPKRCVCQILSPNLATLCAKKGLLFVPPNIDRRTVELRLADNFVTNIKRKDFANMTSLVDLTLSRNTISFITPHAFADLRNLRALHLNSNRLTKITNDMFSGLSNLHHLILNNNQLTLISSTAFDDVFALEELDLSYNNLETIPWDAVEKMVSLHTLSLDHNMIDNIPKGTFSHLHKMTRLDVTSNKLQKLPPDPLFQRAQVLATSGIISPSTFALSFGGNPLHCNCELLWLRRLSREDDLETCASPPLLTGRYFWSIPEEEFLCEPPLITRHTHEMRVLEGQRATLRCKARGDPEPAIHWISPEGKLISNATRSLVYDNGTLDILITTVKDTGAFTCIASNPAGEATQIVDLHI
modifications: N-linked glycans at N73, N330 and N339
notes: SALM5, human, LRR and Ig domains, residues 18-374; Glycans trimmed with Endo H only for crystallization; also called SALM5 LRR-Ig WT; WT; source: BacMam baculovirus-transduced HEK293 GnTI- cells, secreted, purified (Ni-NTA, gel filtration); not shown: His7, C-terminal, kept
B2: human PTPδ Ig1–3 (MeA^−) (domain or fragment, UniProt P23468 21-320, looked up)
chain: ETPPRFTRTPVDQTGVSGGVASFICQATGDPRPKIVWNKKGKKVSNQRFEVIEFDDGSGSVLRIQPLRTPRDEAIYECVASNNVGEISVSTRLTVLREDQIPRGFPTIDMGPQLKVVERTRTATMLCAASGNPDPEITWFKDFLPVDTSNNNGRIKQLRSGALQIEQSEESDQGKYECVATNSAGTRYSAPANLYVRELREVRRVPPRFSIPPTNHEIMPGGSVNITCVAVGSPMPYVKWMLGAEDLTPEDDMPIGRNVLELNDVRQSANYTCVAMSTLGVIEAIAQITVK
notes: Glycans trimmed with Endo H only for crystallization; also called MeA^−/MeB^+; source: BacMam baculovirus-transduced HEK293 GnTI- cells, secreted, purified (Ni-NTA, gel filtration); not shown: His7, C-terminal, kept
B3: Fc-tagged human PTPδ Ig1–3 (MeA^−) (Fc fusion, UniProt P23468 21-320, looked up)
chain: ETPPRFTRTPVDQTGVSGGVASFICQATGDPRPKIVWNKKGKKVSNQRFEVIEFDDGSGSVLRIQPLRTPRDEAIYECVASNNVGEISVSTRLTVLREDQIPRGFPTIDMGPQLKVVERTRTATMLCAASGNPDPEITWFKDFLPVDTSNNNGRIKQLRSGALQIEQSEESDQGKYECVATNSAGTRYSAPANLYVRELREVRRVPPRFSIPPTNHEIMPGGSVNITCVAVGSPMPYVKWMLGAEDLTPEDDMPIGRNVLELNDVRQSANYTCVAMSTLGVIEAIAQITVK
notes: BacMam vector with C-terminal human IgG1 Fc plus 7x His-tag; also called PTPδ-Fc; PTPδ Ig1–3 (MeA^−)-Fc; source: BacMam baculovirus-transduced HEK293 GnTI- cells, secreted, purified (Ni-NTA, gel filtration); not shown: Fc (human IgG1), C-terminal, kept
B4: human PTPδ Ig1–3 WT (domain or fragment, UniProt P23468 21-320, looked up)
chain: ETPPRFTRTPVDQTGVSGGVASFICQATGDPRPKIVWNKKGKKVSNQRFEVIEFDDGSGSVLRIQPLRTPRDEAIYECVASNNVGEISVSTRLTVLREDQIPRGFPTIDMGPQLKVVERTRTATMLCAASGNPDPEITWFKDFLPVDTSNNNGRIKQLRSESIGGTPIRGALQIEQSEESDQGKYECVATNSAGTRYSAPANLYVRELREVRRVPPRFSIPPTNHEIMPGGSVNITCVAVGSPMPYVKWMLGAEDLTPEDDMPIGRNVLELNDVRQSANYTCVAMSTLGVIEAIAQITVK
notes: PTPδ, human, Ig domains 1-3 with MeA and MeB remained; residues 21-320 as stated for its variants; also called MeA^+/MeB^+; source: BacMam baculovirus-transduced HEK293 GnTI- cells, secreted, purified (Ni-NTA, gel filtration); not shown: His7, C-terminal, kept
B5: human PTPδ Ig1–3 (MeA^−/MeB^−) (domain or fragment, UniProt P23468 21-320, looked up)
chain: ETPPRFTRTPVDQTGVSGGVASFICQATGDPRPKIVWNKKGKKVSNQRFEVIEFDDGSGSVLRIQPLRTPRDEAIYECVASNNVGEISVSTRLTVLREDQIPRGFPTIDMGPQLKVVERTRTATMLCAASGNPDPEITWFKDFLPVDTSNNNGRIKQLRSGALQIEQSEESDQGKYECVATNSAGTRYSAPANLYVRVRRVPPRFSIPPTNHEIMPGGSVNITCVAVGSPMPYVKWMLGAEDLTPEDDMPIGRNVLELNDVRQSANYTCVAMSTLGVIEAIAQITVK
notes: PTPδ, human, Ig domains 1-3, residues 21-320 with both residues 181-189 (MeA) and 227-230 (MeB) deleted; Splice code variant lacking mini exons A and B; source: BacMam baculovirus-transduced HEK293 GnTI- cells, secreted, purified (Ni-NTA, gel filtration); not shown: His7, C-terminal, kept
B6: human PTPδ Ig1–3 (MeB^−) (domain or fragment, UniProt P23468 21-320, looked up)
chain: ETPPRFTRTPVDQTGVSGGVASFICQATGDPRPKIVWNKKGKKVSNQRFEVIEFDDGSGSVLRIQPLRTPRDEAIYECVASNNVGEISVSTRLTVLREDQIPRGFPTIDMGPQLKVVERTRTATMLCAASGNPDPEITWFKDFLPVDTSNNNGRIKQLRSESIGGTPIRGALQIEQSEESDQGKYECVATNSAGTRYSAPANLYVRVRRVPPRFSIPPTNHEIMPGGSVNITCVAVGSPMPYVKWMLGAEDLTPEDDMPIGRNVLELNDVRQSANYTCVAMSTLGVIEAIAQITVK
notes: PTPδ, human, Ig domains 1-3, residues 21-320 with the MeB splice insert ELRE 227-230 deleted; Splice code variant lacking mini exon B; also called MeA^+/MeB^−; source: BacMam baculovirus-transduced HEK293 GnTI- cells, secreted, purified (Ni-NTA, gel filtration); not shown: His7, C-terminal, kept

Tests used:
[1] = molecular target: the molecule itself; experiment: crystal structure; SALM5 LRR-Ig in complex with PTPδ Ig1–3 (MeA^−), Endo H trimmed; 3.73 Å; 0.76 M potassium sodium tartrate, 0.1 M MES pH 6.0; molecular replacement
[2] = molecular target: T1, human SALM5 LRR-Ig R110N/E160S; experiment: SEC; purified SALM5 and PTPδ mixed, 1 h at 4 °C, Superdex 200 Increase in HBS (10 mM HEPES pH 7.5, 500 mM NaCl); conditions: both partners purified
[3] = molecular target: B1; experiment: SPR; Biacore T200, 25 °C; His-tagged SALM5 LRR-Ig immobilised on CM5; His-tagged PTPδ Ig1–3 variants as analytes 2.74-6000 nM; 10 mM HEPES pH 7.4, 150 mM NaCl, 3 mM EDTA, 0.05% P20; 1:1 Langmuir model; conditions: both partners purified
[4] = molecular target: B1; experiment: SPR; Biacore T200, 25 °C; Fc-tagged PTPδ Ig1–3 (MeA^−) amine-coupled to CM5 (about 500 RU); SALM5 LRR-Ig analytes 23.43-1500 nM; 10 mM HEPES pH 7.4, 150 mM NaCl, 3 mM EDTA, 0.05% P20; 1:1 Langmuir model; conditions: both partners purified
[5] = molecular target: T2, human SALM5 LRR-Ig L327N; experiment: as above; conditions: both partners purified

Binder	Kd [3] [nM]	other results
B1		stoichiometry N [1]: 2
B2	99.9	binding result [2]: binds
B3		Kd [4]: 282 nM; Kd [5]: 145 nM
B4	66	
B5	1870	
B6	1780	
